The values below come from patent CN111110862A.

For assay [1], the target named is 人CLDN18.2(hCLDN18.2) (human) (UniProt P56856). The experiment in a line: cell ELISA on fixed hCLDN18.2+cell. On the technique in general: In an ELISA, binding on a coated surface is turned into a signal by an enzyme label.
The target is the same in assay [2]. The experiment in a line: cell ELISA on fixed hCLDN18.2+cell, plateau reading.
Assay [3] has the same target. The experiment in a line: cell ELISA, hybridoma supernatant on hCLDN18.2+cell.

B1: anti-hCLDN18.2鼠源抗体mab5b (antibody, human IgG1, kappa, V domains shown)
VH: QVQLQQSGAELIGPGTSVKVSCKASGYAFSNYLIEWVKQRPEQGLEWIGLINPGSGGTNYNEKFKGKATLTADKSSSTAYMQLSSLTSDDSAVYFCARVYYGNSFAYWGQGTLVTVSA
VL: DIVMTQSPSSLTVTAGEKVTMSCKSSQSLLNSGNQKNYLTWYQQKPGQPPKLLIYWASTRESGVPDRFTGSGSGTHFTLTISSVQAEDLAVYYCQNDYFYPFTFGSGTKLEKKR
For B1, in assay [1], the EC50 (usually the concentration needed to bring the measured effect to its halfway point) was 0.115 nM, the Emax higher than Ref was more than 36% and the fold better binding (EC50) than Ref is more than 1 fold. In assay [2], this molecule had an Emax of 1.92.

B2: 杂交瘤单克隆细胞株C13C1F1D3G6所分泌的抗体 (antibody, V domains shown)
VH: QVQLQQSGAELIGPGTSVKVSCKASGYAFSNYLIEWVKQRPEQGLEWIGLINPGSGGTNYNEKFKGKATLTADKSSSTAYMQLSSLTSDDSAVYFCARVYYGNSFAYWGQGTLVTVSA
VL: DIVMTQSPSSLTVTAGEKVTMSCKSSQSLLNSGNQKNYLTWYQQKPGQPPKLLIYWASTRESGVPDRFTGSGSGTHFTLTISSVQAEDLAVYYCQNDYFYPFTFGSGTKLEKK
Molecule B2 yielded an ELISA读值 in assay [3] of 0.889.
